From patent publication US20260053963A1

Target: CD33 (human) (UniProt P20138)
Assay: cell-based or functional assay

Sequence of UniProt P20138 (P20138 18-364): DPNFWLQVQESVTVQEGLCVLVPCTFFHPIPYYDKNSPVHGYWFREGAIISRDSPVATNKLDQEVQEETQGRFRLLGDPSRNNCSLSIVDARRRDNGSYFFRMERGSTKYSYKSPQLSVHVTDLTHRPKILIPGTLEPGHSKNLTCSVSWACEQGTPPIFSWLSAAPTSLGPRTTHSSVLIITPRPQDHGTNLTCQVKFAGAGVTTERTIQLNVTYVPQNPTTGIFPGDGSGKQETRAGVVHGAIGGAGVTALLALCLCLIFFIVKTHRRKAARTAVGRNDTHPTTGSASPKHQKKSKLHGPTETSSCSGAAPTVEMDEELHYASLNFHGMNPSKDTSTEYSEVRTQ

^225Ac-labeled lintuzumab (^225Ac-labeled conjugate of p-SCN-Bn-DOTA and lintuzumab) (antibody; the values are: LD50)
cytotoxicity on HL60 (leukemia cells): dose at which 50% of the cells were killed (LD50): 8 pCi/mL
